Results as given in publication PMC6846478.
Residue numbers refer to the chain shown, from its start.

Experiments:
NLuc-P54nrb full length [1] = target: T1, NLuc-P54nrb full length (human, UniProt Q15233 1-471); test: NanoBRET
T1 sequence: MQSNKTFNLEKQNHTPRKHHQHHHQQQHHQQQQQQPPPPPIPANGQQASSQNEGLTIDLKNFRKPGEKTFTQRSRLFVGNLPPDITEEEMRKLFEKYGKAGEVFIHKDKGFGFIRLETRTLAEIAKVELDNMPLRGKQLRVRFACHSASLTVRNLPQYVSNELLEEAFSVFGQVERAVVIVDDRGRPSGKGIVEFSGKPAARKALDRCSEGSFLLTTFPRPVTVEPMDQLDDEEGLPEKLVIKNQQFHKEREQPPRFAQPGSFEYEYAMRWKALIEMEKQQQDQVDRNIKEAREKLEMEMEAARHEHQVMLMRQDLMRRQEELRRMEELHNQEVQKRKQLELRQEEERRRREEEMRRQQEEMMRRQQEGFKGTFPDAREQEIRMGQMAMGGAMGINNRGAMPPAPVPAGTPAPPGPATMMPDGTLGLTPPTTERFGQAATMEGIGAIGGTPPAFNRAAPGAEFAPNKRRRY

RNase H1 CAT R179A = target: T2, RNase H1 CAT R179A (human, UniProt O60930 81-286, R179A); test: NanoBRET
T2 sequence: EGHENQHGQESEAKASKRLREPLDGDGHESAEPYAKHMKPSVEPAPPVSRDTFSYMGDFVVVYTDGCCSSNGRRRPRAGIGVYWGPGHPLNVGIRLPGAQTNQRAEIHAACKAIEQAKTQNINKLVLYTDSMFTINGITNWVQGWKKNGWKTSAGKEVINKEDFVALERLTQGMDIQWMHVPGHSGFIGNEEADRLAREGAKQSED

RNase H1 CAT N151A = target: T3, RNase H1 CAT N151A (human, UniProt O60930 81-286, N151A); test: NanoBRET
T3 sequence: T2 sequence with N71A, A99R

RNase H1 HBD K59A,K60A = target: T4, RNase H1 HBD K59A,K60A (human, UniProt O60930 1-80, K59A;K60A); test: NanoBRET
T4 sequence: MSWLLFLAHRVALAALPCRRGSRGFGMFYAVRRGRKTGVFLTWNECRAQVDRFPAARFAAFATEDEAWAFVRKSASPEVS

NLuc-P54nrb full length [2] = target: T1, NLuc-P54nrb full length; test: competition

For CTGCTAGCCTCTGGATTTGA (XNA, full PS; 5-10-5 gapmer, 2'-F wings, DNA gap) [ASO 766638 (2'-F gapmer)], the Kd (NLuc-P54nrb full length [1]) was about 3 nM.

B1: PO DNA/RNA heteroduplex (DNA:RNA)
DNA: CTGCTAGCCTCTGGATTTGA
RNA: UCAAAUCCAGAGGCUAGCAG
B1 was tested, and the binding signal (RNase H1 CAT R179A) was over 2 fold weaker than WT CAT, the binding signal (RNase H1 CAT N151A) was over 7 fold weaker than WT CAT and the binding signal (RNase H1 HBD K59A,K60A) was about 10 fold weaker than WT HBD.

CTGCTAGCCTCTGGATTTGA (ssDNA) [PO DNA]: no binding (NLuc-P54nrb full length [2]).

CUGCUAGCCUCUGGAUUUGA (ssRNA) [PO RNA]: no binding (NLuc-P54nrb full length [2]).
